The target of the assay is T1, MBP-WWP2 (UniProt O00308 1-870).
T1 construct: WWP2; also called bacterially purified WWP2; source: bacterially expressed; bacterially purified (methods, results) or bacterial cell lysate
Briefly: pull-down; GST, GST-p73 or GST-ΔNp73 on glutathione-Sepharose beads incubated with MBP-WWP2 for 1 h at 4°C; immunoblot with MBP antibody. The note with it: both partners purified. (In general: Immunoblotting shows a protein as a band on a membrane.)

T1 sequence (O00308 whole entry): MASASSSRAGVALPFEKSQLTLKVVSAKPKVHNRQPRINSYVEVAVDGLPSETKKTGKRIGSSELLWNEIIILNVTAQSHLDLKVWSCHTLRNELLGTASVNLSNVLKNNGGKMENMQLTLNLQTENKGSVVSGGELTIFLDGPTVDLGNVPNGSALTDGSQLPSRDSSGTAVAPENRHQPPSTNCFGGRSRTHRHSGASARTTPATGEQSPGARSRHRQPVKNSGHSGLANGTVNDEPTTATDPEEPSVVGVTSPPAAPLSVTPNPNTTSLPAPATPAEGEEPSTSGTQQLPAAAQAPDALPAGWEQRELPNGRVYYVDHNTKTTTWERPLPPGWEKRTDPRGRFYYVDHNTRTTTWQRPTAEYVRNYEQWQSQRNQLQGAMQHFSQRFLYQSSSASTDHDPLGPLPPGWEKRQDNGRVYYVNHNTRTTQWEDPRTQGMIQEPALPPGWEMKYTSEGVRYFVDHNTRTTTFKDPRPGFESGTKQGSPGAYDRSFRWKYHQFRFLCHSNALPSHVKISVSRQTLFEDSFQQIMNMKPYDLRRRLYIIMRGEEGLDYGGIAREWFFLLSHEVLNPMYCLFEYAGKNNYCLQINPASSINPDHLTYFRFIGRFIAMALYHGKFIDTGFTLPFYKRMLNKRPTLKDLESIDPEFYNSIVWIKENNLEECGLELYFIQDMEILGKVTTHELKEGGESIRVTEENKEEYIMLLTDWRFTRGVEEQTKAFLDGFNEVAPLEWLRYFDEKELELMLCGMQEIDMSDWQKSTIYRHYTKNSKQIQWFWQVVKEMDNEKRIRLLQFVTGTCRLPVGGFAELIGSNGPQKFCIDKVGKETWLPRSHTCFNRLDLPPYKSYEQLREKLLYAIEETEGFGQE

B1: GST-p73 (natural protein, UniProt O15350 1-636, looked up)
chain: MAQSTATSPDGGTTFEHLWSSLEPDSTYFDLPQSSRGNNEVVGGTDSSMDVFHLEGMTTSVMAQFNLLSSTMDQMSSRAASASPYTPEHAASVPTHSPYAQPSSTFDTMSPAPVIPSNTDYPGPHHFEVTFQQSSTAKSATWTYSPLLKKLYCQIAKTCPIQIKVSTPPPPGTAIRAMPVYKKAEHVTDVVKRCPNHELGRDFNEGQSAPASHLIRVEGNNLSQYVDDPVTGRQSVVVPYEPPQVGTEFTTILYNFMCNSSCVGGMNRRPILIIITLEMRDGQVLGRRSFEGRICACPGRDRKADEDHYREQQALNESSAKNGAASKRAFKQSPPAVPALGAGVKKRRHGDEDTYYLQVRGRENFEILMKLKESLELMELVPQPLVDSYRQQQQLLQRPSHLQPPSYGPVLSPMNKVHGGMNKLPSVNQLVGQPPPHSSAATPNLGPVGPGMLNNHGHAVPANGEMSSSHSAQSMVSGSHCTPPPPYHADPSLVSFLTGLGCPNCIEYFTSQGLQSIYHLQNLTIEDLGALKIPEQYRMTIWRGLQDLKQGHDYSTAQQLLRSSNAATISIGGSGELQRQRVMEAVHFRVRHTITIPNRGGPGGGPDEWADFGFDLPDCKARKQPIKEEFTEAEIH
notes: also called glutathione S-transferase (GST)–p73
For the molecule B1, the binding result is “binds”.

B2: GST-ΔNp73 (natural protein, UniProt O15350-8 1-587, looked up)
chain: MLYVGDPARHLATAQFNLLSSTMDQMSSRAASASPYTPEHAASVPTHSPYAQPSSTFDTMSPAPVIPSNTDYPGPHHFEVTFQQSSTAKSATWTYSPLLKKLYCQIAKTCPIQIKVSTPPPPGTAIRAMPVYKKAEHVTDVVKRCPNHELGRDFNEGQSAPASHLIRVEGNNLSQYVDDPVTGRQSVVVPYEPPQVGTEFTTILYNFMCNSSCVGGMNRRPILIIITLEMRDGQVLGRRSFEGRICACPGRDRKADEDHYREQQALNESSAKNGAASKRAFKQSPPAVPALGAGVKKRRHGDEDTYYLQVRGRENFEILMKLKESLELMELVPQPLVDSYRQQQQLLQRPSHLQPPSYGPVLSPMNKVHGGMNKLPSVNQLVGQPPPHSSAATPNLGPVGPGMLNNHGHAVPANGEMSSSHSAQSMVSGSHCTPPPPYHADPSLVSFLTGLGCPNCIEYFTSQGLQSIYHLQNLTIEDLGALKIPEQYRMTIWRGLQDLKQGHDYSTAQQLLRSSNAATISIGGSGELQRQRVMEAVHFRVRHTITIPNRGGPGGGPDEWADFGFDLPDCKARKQPIKEEFTEAEIH
As to B2, the binding result was “binds”.

The values above are taken from publication PMC4187731, “WWP2-WWP1 Ubiquitin Ligase Complex Coordinated by PPM1G Maintains the Balance between Cellular p73 and ΔNp73 Levels” (Molecular and Cellular Biology, 2014).
